# Assay results: IntAct's records for PubMed 15992545
# B1: Auxin-responsive protein IAA12 (Arabidopsis thaliana (Mouse-ear cress)), Q38830 (parent)
# chain: MRGVSELEVGKSNLPAESELELGLGLSLGGGAWKERGRILTAKDFPSVGSKRSAESSSHQGASPPRSSQVVGWPPIGLHRMNSLVNNQAMKAARAEEGDGEKKVVKNDELKDVSMKVNPKVQGLGFVKVNMDGVGIGRKVDMRAHSSYENLAQTLEEMFFGMTGTTCREKVKPLRLLDGSSDFVLTYEDKEGDWMLVGDVPWRMFINSVKRLRIMGTSEASGLAPRRQEQKDRQRNNPV
# partner: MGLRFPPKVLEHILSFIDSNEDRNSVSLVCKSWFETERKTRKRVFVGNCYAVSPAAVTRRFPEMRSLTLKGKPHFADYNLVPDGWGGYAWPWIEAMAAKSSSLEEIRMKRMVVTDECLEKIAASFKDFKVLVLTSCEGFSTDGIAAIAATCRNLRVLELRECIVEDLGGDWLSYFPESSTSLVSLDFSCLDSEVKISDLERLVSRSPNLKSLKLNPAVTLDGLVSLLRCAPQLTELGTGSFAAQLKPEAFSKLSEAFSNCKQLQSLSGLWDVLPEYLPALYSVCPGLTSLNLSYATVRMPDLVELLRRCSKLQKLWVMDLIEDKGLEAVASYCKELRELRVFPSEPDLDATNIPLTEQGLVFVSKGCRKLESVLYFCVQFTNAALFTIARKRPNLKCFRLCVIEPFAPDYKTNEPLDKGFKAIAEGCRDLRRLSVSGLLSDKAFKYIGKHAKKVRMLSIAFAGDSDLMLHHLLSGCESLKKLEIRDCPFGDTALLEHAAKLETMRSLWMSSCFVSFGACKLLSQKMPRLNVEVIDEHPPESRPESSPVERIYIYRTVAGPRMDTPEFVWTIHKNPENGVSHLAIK
# B2: Auxin-responsive protein IAA12 (Arabidopsis thaliana (Mouse-ear cress)), Q38830 (parent)
# chain: B1 chain
# partner: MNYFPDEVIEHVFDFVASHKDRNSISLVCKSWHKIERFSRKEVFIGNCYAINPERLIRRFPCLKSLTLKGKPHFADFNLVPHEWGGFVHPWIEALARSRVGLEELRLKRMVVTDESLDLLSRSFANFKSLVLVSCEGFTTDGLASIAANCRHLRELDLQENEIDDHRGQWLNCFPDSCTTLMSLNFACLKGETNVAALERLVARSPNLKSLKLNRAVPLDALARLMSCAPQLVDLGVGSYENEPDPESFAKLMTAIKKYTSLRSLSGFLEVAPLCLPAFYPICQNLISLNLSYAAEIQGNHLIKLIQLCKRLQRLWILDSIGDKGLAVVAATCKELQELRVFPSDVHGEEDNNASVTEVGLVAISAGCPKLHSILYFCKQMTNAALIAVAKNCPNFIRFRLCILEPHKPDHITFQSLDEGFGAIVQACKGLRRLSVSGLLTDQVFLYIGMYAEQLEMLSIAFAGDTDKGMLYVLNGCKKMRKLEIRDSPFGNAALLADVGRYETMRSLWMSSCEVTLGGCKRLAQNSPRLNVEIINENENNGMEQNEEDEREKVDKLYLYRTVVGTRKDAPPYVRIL
# B3: Auxin-responsive protein IAA12 (Arabidopsis thaliana (Mouse-ear cress)), Q38830 (parent)
# chain: B1 chain
# partner: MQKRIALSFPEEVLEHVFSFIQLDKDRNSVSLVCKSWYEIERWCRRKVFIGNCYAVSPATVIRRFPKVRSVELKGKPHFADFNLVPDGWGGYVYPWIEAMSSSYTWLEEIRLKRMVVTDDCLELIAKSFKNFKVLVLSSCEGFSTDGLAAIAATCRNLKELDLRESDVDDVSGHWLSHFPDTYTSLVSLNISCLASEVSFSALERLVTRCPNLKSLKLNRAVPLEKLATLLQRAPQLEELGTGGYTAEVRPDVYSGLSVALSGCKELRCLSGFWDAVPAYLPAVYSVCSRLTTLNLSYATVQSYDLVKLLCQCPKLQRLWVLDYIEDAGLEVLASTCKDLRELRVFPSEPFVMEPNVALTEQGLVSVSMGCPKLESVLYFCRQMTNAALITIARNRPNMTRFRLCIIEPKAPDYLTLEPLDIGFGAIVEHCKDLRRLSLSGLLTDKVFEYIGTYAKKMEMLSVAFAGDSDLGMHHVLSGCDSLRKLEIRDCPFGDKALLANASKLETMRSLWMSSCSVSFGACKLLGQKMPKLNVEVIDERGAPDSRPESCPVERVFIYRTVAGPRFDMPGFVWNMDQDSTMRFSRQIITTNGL
# Variants of: B1
# Settings: with grh1_arath GRH1, Q9ZR12
row,effect of a mutation on the interaction,Variant
1,decreasing interaction,MRGVSELEVGKSNLPAESELELGLGLSLGGGAWKERGRILTAKDFPSVGSKRSAESSSHQGASPPRSSQVVGWSPIGLHRMNSLVNNQAMKAARAEEGDGEKKVVKNDELKDVSMKVNPKVQGLGFVKVNMDGVGIGRKVDMRAHSSYENLAQTLEEMFFGMTGTTCREKVKPLRLLDGSSDFVLTYEDKEGDWMLVGDVPWRMFINSVKRLRIMGTSEASGLAPRRQEQKDRQRNNPV [P74S]

# Variants of: B2
# Settings: with afb3_arath AFB3, Q9LPW7
row,effect of a mutation on the interaction,Variant
1,decreasing interaction,MRGVSELEVGKSNLPAESELELGLGLSLGGGAWKERGRILTAKDFPSVGSKRSAESSSHQGASPPRSSQVVGWSPIGLHRMNSLVNNQAMKAARAEEGDGEKKVVKNDELKDVSMKVNPKVQGLGFVKVNMDGVGIGRKVDMRAHSSYENLAQTLEEMFFGMTGTTCREKVKPLRLLDGSSDFVLTYEDKEGDWMLVGDVPWRMFINSVKRLRIMGTSEASGLAPRRQEQKDRQRNNPV [P74S]

# Variants of: B3
# Settings: with tir1_arath TIR1, Q570C0
row,effect of a mutation on the interaction,Variant
1,decreasing interaction,MRGVSELEVGKSNLPAESELELGLGLSLGGGAWKERGRILTAKDFPSVGSKRSAESSSHQGASPPRSSQVVGWSPIGLHRMNSLVNNQAMKAARAEEGDGEKKVVKNDELKDVSMKVNPKVQGLGFVKVNMDGVGIGRKVDMRAHSSYENLAQTLEEMFFGMTGTTCREKVKPLRLLDGSSDFVLTYEDKEGDWMLVGDVPWRMFINSVKRLRIMGTSEASGLAPRRQEQKDRQRNNPV [P74S]
